For 20 substances, screen value and other: log2 fold change vs WT results are on record in PMC7950113.

Holding throughout (test): Co-AP mass spectrometry with TMT quantification
Test [1] deals with oligosaccharyl transferase complex catalytic subunit A [human (endogenous in HEK293 cells)]. As to conditions: TMT intensities of interactors normalized to Tg intensities, read off a plot.
For another test, the target named is PSMD3. The settings on record: HEK293 cells; TMT intensities of interactors normalized to Tg intensities; read off a plot.
A further test concerns the target PSMA1. As to conditions: HEK293 cells; TMT intensities of interactors normalized to Tg intensities; read off a plot.
The target in the next test is PSME2. The settings on record: HEK293 cells; TMT intensities of interactors normalized to Tg intensities; read off a plot.
A further test addresses UGGT2. The settings on record: HEK293 cells; TMT intensities of interactors normalized to Tg intensities; read off a plot.
For the next test, the target named is PSMC4. The settings on record: HEK293 cells; TMT intensities of interactors normalized to Tg intensities; read off a plot.
The target in the next test is PSMB4. As to conditions: HEK293 cells; TMT intensities of interactors normalized to Tg intensities; read off a plot.
In a further test the target is MOGS. The settings on record: HEK293 cells; TMT intensities of interactors normalized to Tg intensities; read off a plot.
For test [2], the target named is calreticulin [human (endogenous in HEK293 cells)]. As to conditions: TMT intensities of interactors normalized to Tg intensities, read off a plot.
Test [3] deals with RAD-dependent oxidoreductase domain containing 2 [human (endogenous in HEK293 cells)]. As to conditions: TMT intensities of interactors normalized to Tg intensities, read off a plot.
The target in another test is PRKCSH. The settings on record: HEK293 cells; TMT intensities of interactors normalized to Tg intensities; read off a plot.
Test [4] addresses protein disulfide isomerase family A member 3 [human (endogenous in HEK293 cells)]. The settings on record: TMT intensities of interactors normalized to Tg intensities, read off a plot.

Take “FLAG-tagged thyroglobulin, WT mutant L2284P [human] / oligosaccharyl transferase complex catalytic subunit A [human (endogenous in HEK293 cells)] chain 1 L2265P”: the screen value in [1] is -0.1 log2.

For “FLAG-tagged thyroglobulin, WT (from UniProt P01266) L2284P”, the other: log2 fold change vs WT is -0.33 log2 with PSMD3; -0.04 log2 with PSMA1; -0.45 log2 with PSME2; 0.49 log2 with UGGT2; -0.27 log2 in the test with PSMC4; -0.51 log2 in the test with PSMB4. For the same substance, the other: log2 fold change vs WT in the test with MOGS was -0.02 log2.

Take “FLAG-tagged thyroglobulin, WT mutant C1264R [human] / calreticulin [human (endogenous in HEK293 cells)] chain 1 C1245R”: the screen value in test [2] was 0.18 log2.

In the case of “FLAG-tagged thyroglobulin, WT (from UniProt P01266) G2341R”, the other: log2 fold change vs WT was -0.42 log2 with PSMD3; 0.04 log2 in the test with PSMA1; -0.65 log2 in the test with PSME2; 0.73 log2 with UGGT2; -0.51 log2 with PSMC4; -0.53 log2 with PSMB4. The other: log2 fold change vs WT in the test with MOGS was -0.05 log2.

In test [2], “FLAG-tagged thyroglobulin, WT mutant G2341R [human] / calreticulin [human (endogenous in HEK293 cells)] chain 1 G2322R” returned a screen value of 0.46 log2.

As for “FLAG-tagged thyroglobulin, WT mutant C1264R [human] / RAD-dependent oxidoreductase domain containing 2 [human (endogenous in HEK293 cells)] chain 1 C1245R”, the screen value in test [3] turned out to be 0.42 log2.

In turn, “FLAG-tagged thyroglobulin, WT mutant A2234D [human] / oligosaccharyl transferase complex catalytic subunit A [human (endogenous in HEK293 cells)] chain 1 A2215D” had a screen value in test [1] of -0.15 log2.

“FLAG-tagged thyroglobulin, WT mutant L2284P [human] / calreticulin [human (endogenous in HEK293 cells)] chain 1 L2265P” returned a screen value in [2] of 0.5 log2.

Regarding “FLAG-tagged thyroglobulin, WT (from UniProt P01266) A2234D”, the other: log2 fold change vs WT with PSMD3 was -0.35 log2; with PSMA1, -0.28 log2; in the test with PSME2, -0.27 log2; with UGGT2 it was 0.15 log2; in the test with PRKCSH, -0.39 log2; in the test with PSMB4, -0.33 log2. For the same substance, the other: log2 fold change vs WT in the test with MOGS came out at 0.09 log2.

On to “FLAG-tagged thyroglobulin, WT (from UniProt P01266) C1264R”, for which the other: log2 fold change vs WT with PSMD3 is -0.45 log2; in the test with PSMA1 it was -0.27 log2; with PSME2, -0.54 log2; with UGGT2 it was -0.09 log2; with PSMC4 it was -0.53 log2; with PRKCSH it was -0.05 log2. The other: log2 fold change vs WT is -0.35 log2 with PSMB4 and -0.15 log2 in the test with MOGS.

As to “FLAG-tagged thyroglobulin, WT mutant L2284P [human] / protein disulfide isomerase family A member 3 [human (endogenous in HEK293 cells)] chain 1 L2265P”, in test [4], the screen value turned out to be 0.6 log2.

The substance “FLAG-tagged thyroglobulin, WT mutant G2341R [human] / protein disulfide isomerase family A member 3 [human (endogenous in HEK293 cells)] chain 1 G2322R” had a screen value in test [4] of 0.55 log2.

Substance “FLAG-tagged thyroglobulin, WT mutant L2284P [human] / RAD-dependent oxidoreductase domain containing 2 [human (endogenous in HEK293 cells)] chain 1 L2265P” had a screen value in test [3] of 0.58 log2.

“FLAG-tagged thyroglobulin, WT mutant C1264R [human] / oligosaccharyl transferase complex catalytic subunit A [human (endogenous in HEK293 cells)] chain 1 C1245R”: in test [1], the screen value was -0.37 log2.

As to “FLAG-tagged thyroglobulin, WT mutant A2234D [human] / calreticulin [human (endogenous in HEK293 cells)] chain 1 A2215D”, in [2], the screen value is 0.07 log2.

Take “FLAG-tagged thyroglobulin, WT mutant A2234D [human] / protein disulfide isomerase family A member 3 [human (endogenous in HEK293 cells)] chain 1 A2215D”: the screen value in [4] turned out to be 0.16 log2.

Take “FLAG-tagged thyroglobulin, WT mutant G2341R [human] / RAD-dependent oxidoreductase domain containing 2 [human (endogenous in HEK293 cells)] chain 1 G2322R”: the screen value in test [3] is 0.45 log2.

In test [4], “FLAG-tagged thyroglobulin, WT mutant C1264R [human] / protein disulfide isomerase family A member 3 [human (endogenous in HEK293 cells)] chain 1 C1245R” returned a screen value of 0.35 log2.

On to “FLAG-tagged thyroglobulin, WT mutant A2234D [human] / RAD-dependent oxidoreductase domain containing 2 [human (endogenous in HEK293 cells)] chain 1 A2215D”, for which the screen value in test [3] was determined as 0.67 log2.

“FLAG-tagged thyroglobulin, WT mutant G2341R [human] / oligosaccharyl transferase complex catalytic subunit A [human (endogenous in HEK293 cells)] chain 1 G2322R” showed a screen value in test [1] of -0.21 log2.
